Laboratory results from publication PMC7102993.
Each block holds one substance with its values, some of them ahead of it.

How the values were obtained:
[1] = molecular target: full-length NrS-1 polymerase (wild type) (phage NrS-1); experiment: SEC; Superose 6 Increase 10/300 GL; 20 mM Tris pH 8.0, 2 mM DTT with 500 mM NaCl (high salt) or 200 mM NaCl (low salt); monomer at 15.83 ml, hexamer at 13.5 ml
[2] = molecular target: full-length NrS-1 polymerase (wild type) (phage NrS-1); experiment: negative-stain electron microscopy; protein from the first peak of the size-exclusion column, diluted to 40 μg/ml in low-salt buffer, stained with 0.75% uranyl formate; 2D class averages and 3D map (RELION)
[3] = molecular target: full-length NrS-1 polymerase K525A mutant (phage NrS-1); experiment: SEC; Superose 6 Increase 10/300 GL; 20 mM Tris pH 8.0, 2 mM DTT with 500 mM NaCl (high salt) or 200 mM NaCl (low salt); monomer at 15.83 ml, hexamer at 13.5 ml
[4] = molecular target: NrS-1 polymerase C-terminal region (residues 301-718) (phage NrS-1); experiment: crystal structure; A-form NrS-1 CTR crystals, space group P212121, grown at 16°C in 2.8 M sodium acetate trihydrate pH 7.0; six monomers per asymmetric unit
[5] = molecular target: NrS-1 polymerase C-terminal region (residues 301-718) (phage NrS-1); experiment: crystal structure; B-form NrS-1 CTR crystals, space group P213, grown at 16°C in 1.6 M NaH2PO4/0.4 M K2HPO4, 0.1 M phosphate-citrate pH 4.2; two monomers per asymmetric unit, hexamer by symmetry operation; 2.4 Å

- stoichiometry N [1]: 6
- stoichiometry N [2]: 6
Substance: full-length NrS-1 polymerase (wild type) (enzyme)

- stoichiometry N [3]: 6
Substance: full-length NrS-1 polymerase K525A mutant (enzyme)

- stoichiometry N [4]: 6
- stoichiometry N [5]: 6
Substance: NrS-1 polymerase C-terminal region (residues 301-718) (domain or fragment)
